Experimental data from paper PMC4233993, “Comparison of three tannases cloned from closely related lactobacillus species: L. Plantarum, L. Paraplantarum, and L. Pentosus” (BMC Microbiology, 2014).

Experiments:
Assay in all cases: HPLC of reaction products, Hanes-Woolf plot
Settings in all cases: 50 mM Tris-HCl pH 8.0, 37°C, 33 nM enzyme
[1] = test system: T1, COc1cc(C(=O)O[C@@H]2Cc3c(O)cc(O)cc3O[C@@H]2c2cc(O)c(O)c(O)c2)cc(O)c1O; assay type: biochemical, Lactiplantibacillus paraplantarum
T1 construct: full ORF (1410 bp, 469 residues, 50,708 Da), C-terminal His tag, fused to YbdK signal peptide in pBE-S, expressed in Bacillus subtilis RIK 1285, purified from cells
Text: (§1) HPLC of reaction products, Hanes-Woolf plot on TanLpa

[2] = test system: T2, O=C(O[C@@H]1Cc2c(O)cc(O)cc2O[C@@H]1c1ccc(O)c(O)c1)c1cc(O)c(O)c(O)c1; assay type: biochemical, Lactiplantibacillus paraplantarum
T2 construct: full ORF (1410 bp, 469 residues, 50,708 Da), C-terminal His tag, fused to YbdK signal peptide in pBE-S, expressed in Bacillus subtilis RIK 1285, purified from cells
Text: as §1

[3] = test system: T3, O=C(O[C@@H]1Cc2c(O)cc(O)cc2O[C@H]1c1ccc(O)c(O)c1)c1cc(O)c(O)c(O)c1; assay type: biochemical, Lactiplantibacillus paraplantarum
T3 construct: full ORF (1410 bp, 469 residues, 50,708 Da), C-terminal His tag, fused to YbdK signal peptide in pBE-S, expressed in Bacillus subtilis RIK 1285, purified from cells
Text: as §1

COC(=O)c1cc(O)c(O)c(O)c1 [4] = test system: T4, COC(=O)c1cc(O)c(O)c(O)c1; assay type: biochemical, Lactiplantibacillus paraplantarum
T4 construct: full ORF (1410 bp, 469 residues, 50,708 Da), C-terminal His tag, fused to YbdK signal peptide in pBE-S, expressed in Bacillus subtilis RIK 1285, purified from cells
Text: as §1

[5] = test system: T5, O=C(O[C@@H]1Cc2c(O)cc(O)cc2O[C@H]1c1cc(O)c(O)c(O)c1)c1cc(O)c(O)c(O)c1; assay type: biochemical, Lactiplantibacillus paraplantarum
T5 construct: full ORF (1410 bp, 469 residues, 50,708 Da), C-terminal His tag, fused to YbdK signal peptide in pBE-S, expressed in Bacillus subtilis RIK 1285, purified from cells
Text: as §1

[6] = test system: T6, O=C(O[C@@H]1Cc2c(O)cc(O)cc2O[C@@H]1c1cc(O)c(O)c(O)c1)c1cc(O)c(O)c(O)c1; assay type: biochemical, Lactiplantibacillus paraplantarum
T6 construct: full ORF (1410 bp, 469 residues, 50,708 Da), C-terminal His tag, fused to YbdK signal peptide in pBE-S, expressed in Bacillus subtilis RIK 1285, purified from cells
Text: as §1

[7] = test system: T7, O=C(O[C@@H]1Cc2c(O)cc(O)cc2O[C@H]1c1ccc(O)c(O)c1)c1cc(O)c(O)c(O)c1; assay type: biochemical, Lactiplantibacillus pentosus
T7 construct: full ORF (1413 bp, 470 residues, 51,193 Da), C-terminal His tag, fused to YbdK signal peptide in pBE-S, expressed in Bacillus subtilis RIK 1285, purified from cells
Text: (§2) HPLC of reaction products, Hanes-Woolf plot on TanLpe

[8] = test system: T8, O=C(O[C@@H]1Cc2c(O)cc(O)cc2O[C@H]1c1cc(O)c(O)c(O)c1)c1cc(O)c(O)c(O)c1; assay type: biochemical, Lactiplantibacillus pentosus
T8 construct: full ORF (1413 bp, 470 residues, 51,193 Da), C-terminal His tag, fused to YbdK signal peptide in pBE-S, expressed in Bacillus subtilis RIK 1285, purified from cells
Text: as §2

[9] = test system: T9, O=C(O[C@@H]1Cc2c(O)cc(O)cc2O[C@@H]1c1cc(O)c(O)c(O)c1)c1cc(O)c(O)c(O)c1; assay type: biochemical, Lactiplantibacillus pentosus
T9 construct: full ORF (1413 bp, 470 residues, 51,193 Da), C-terminal His tag, fused to YbdK signal peptide in pBE-S, expressed in Bacillus subtilis RIK 1285, purified from cells
Text: as §2

COC(=O)c1cc(O)c(O)c(O)c1 [10] = test system: T10, COC(=O)c1cc(O)c(O)c(O)c1; assay type: biochemical, Lactiplantibacillus pentosus
T10 construct: full ORF (1413 bp, 470 residues, 51,193 Da), C-terminal His tag, fused to YbdK signal peptide in pBE-S, expressed in Bacillus subtilis RIK 1285, purified from cells
Text: as §2

[11] = test system: T11, O=C(O[C@@H]1Cc2c(O)cc(O)cc2O[C@@H]1c1ccc(O)c(O)c1)c1cc(O)c(O)c(O)c1; assay type: biochemical, Lactiplantibacillus pentosus
T11 construct: full ORF (1413 bp, 470 residues, 51,193 Da), C-terminal His tag, fused to YbdK signal peptide in pBE-S, expressed in Bacillus subtilis RIK 1285, purified from cells
Text: as §2

[12] = test system: T12, COc1cc(C(=O)O[C@@H]2Cc3c(O)cc(O)cc3O[C@@H]2c2cc(O)c(O)c(O)c2)cc(O)c1O; assay type: biochemical, Lactiplantibacillus pentosus
T12 construct: full ORF (1413 bp, 470 residues, 51,193 Da), C-terminal His tag, fused to YbdK signal peptide in pBE-S, expressed in Bacillus subtilis RIK 1285, purified from cells
Text: as §2

[13] = substrate: O=C(O[C@@H]1Cc2c(O)cc(O)cc2O[C@H]1c1ccc(O)c(O)c1)c1cc(O)c(O)c(O)c1; assay type: biochemical, Lactiplantibacillus plantarum
Text: (§3) HPLC of reaction products, Hanes-Woolf plot on TanLpl

[14] = substrate: O=C(O[C@@H]1Cc2c(O)cc(O)cc2O[C@@H]1c1cc(O)c(O)c(O)c1)c1cc(O)c(O)c(O)c1; assay type: biochemical, Lactiplantibacillus plantarum
Text: as §3

[15] = substrate: O=C(O[C@@H]1Cc2c(O)cc(O)cc2O[C@H]1c1cc(O)c(O)c(O)c1)c1cc(O)c(O)c(O)c1; assay type: biochemical, Lactiplantibacillus plantarum
Text: as §3

[16] = substrate: O=C(O[C@@H]1Cc2c(O)cc(O)cc2O[C@@H]1c1ccc(O)c(O)c1)c1cc(O)c(O)c(O)c1; assay type: biochemical, Lactiplantibacillus plantarum
Text: as §3

[17] = substrate: COc1cc(C(=O)O[C@@H]2Cc3c(O)cc(O)cc3O[C@@H]2c2cc(O)c(O)c(O)c2)cc(O)c1O; assay type: biochemical, Lactiplantibacillus plantarum
Text: as §3

[18] = substrate: COC(=O)c1cc(O)c(O)c(O)c1; assay type: biochemical, Lactiplantibacillus plantarum
Text: as §3

## TanLpa (Lactiplantibacillus paraplantarum)
[1]
  Km: 40 ± 4 µM
  kcat: 0.35 ± 0.07 s⁻¹
  kcat/Km: 9020 ± 2280 M⁻¹ s⁻¹
[2]
  Km: 60 ± 10 µM
  kcat: 11.08 ± 0.44 s⁻¹
  kcat/Km: 195000 ± 21500 M⁻¹ s⁻¹
[3]
  Km: 50 ± 5 µM
  kcat: 8.1 ± 0.04 s⁻¹
  kcat/Km: 182000 ± 27700 M⁻¹ s⁻¹
COC(=O)c1cc(O)c(O)c(O)c1 [4]
  Km: 500 ± 60 µM
  kcat: 72.73 ± 3.34 s⁻¹
  kcat/Km: 145000 ± 10600 M⁻¹ s⁻¹
[5]
  Km: 60 ± 2 µM
  kcat: 9.2 ± 0.09 s⁻¹
  kcat/Km: 155000 ± 7970 M⁻¹ s⁻¹
[6]
  Km: 60 ± 10 µM
  kcat: 14.29 ± 0.82 s⁻¹
  kcat/Km: 261000 ± 46500 M⁻¹ s⁻¹

## TanLpe (Lactiplantibacillus pentosus)
[7]
  Km: 80 ± 4 µM
  kcat: 1.48 ± 0.11 s⁻¹
  kcat/Km: 19200 ± 2360 M⁻¹ s⁻¹
[8]
  Km: 70 ± 2 µM
  kcat: 1.12 ± 0.13 s⁻¹
  kcat/Km: 14300 ± 1950 M⁻¹ s⁻¹
[9]
  Km: 60 ± 20 µM
  kcat: 0.44 ± 0.02 s⁻¹
  kcat/Km: 7250 ± 2510 M⁻¹ s⁻¹
COC(=O)c1cc(O)c(O)c(O)c1 [10]
  Km: 870 ± 410 µM
  kcat: 15.95 ± 3.13 s⁻¹
  kcat/Km: 18800 ± 3080 M⁻¹ s⁻¹
[11]
  Km: 50 ± 10 µM
  kcat: 0.42 ± 0.03 s⁻¹
  kcat/Km: 8630 ± 1170 M⁻¹ s⁻¹
[12]
  Km: 5 ± 0.9 µM
  kcat: 0.06 ± 0.02 s⁻¹
  kcat/Km: 10600 ± 1330 M⁻¹ s⁻¹

B1: TanLpl (Lactiplantibacillus plantarum) (protein)
chain: MSNRLIFDADWLVPEQVQVAGQAIQYYAARNIQYVQHPVAAIQVLNVFVPAAYLHGSSVNGYQRATAPILMPNTVGGYLPGPADDPQRVTWPTNAGTIQQALKRGYVVVAAGIRGRTTVDKSGQRVGQAPAFIVDMKAAIRYVKYNQGRLPGDANRIITNGTSAGGATSALAGASGNSAYFEPALTALGAAPATDDIFAVSAYCPIHNLEHADMAYEWQFNGINDWHRYQPVAGTTKNGRPKFEPVSGQLTVEEQALSLALKAQFSTYLNQLKLTASDGTHLTLNEAGMGSFRDVVRQLLISSAQTAFDQGTDIHKYAGFVVTGNQVTDLDLSAYLKSLTRMKAVPAFDQLDLTSPENNLFGDATAKAKHFTALAQTRSTVTAQLADAELIQAINPLSYLTTTSSQVAKHWRIRHGAADRDTSFAIPIILAIMLENHGYGIDFALPWDIPHSGDYDLGDLFSWIDGLCQ
notes: full ORF (469 residues, ~50 kDa), C-terminal His tag, fused to YbdK signal peptide in pBE-S, expressed in Bacillus subtilis RIK 1285, purified from cells
[13]
  Km: 50 ± 2 µM
  kcat: 2.41 ± 0.10 s⁻¹
  kcat/Km: 53600 ± 4620 M⁻¹ s⁻¹
[14]
  Km: 100 ± 10 µM
  kcat: 1.12 ± 0.03 s⁻¹
  kcat/Km: 11700 ± 1290 M⁻¹ s⁻¹
[15]
  Km: 30 ± 8 µM
  kcat: 0.89 ± 0.044 s⁻¹
  kcat/Km: 27200 ± 6280 M⁻¹ s⁻¹
[16]
  Km: 30 ± 20 µM
  kcat: 1.49 ± 0.19 s⁻¹
  kcat/Km: 52200 ± 25600 M⁻¹ s⁻¹
[17]
  Km: 40 ± 9 µM
  kcat: 0.26 ± 0.04 s⁻¹
  kcat/Km: 6040 ± 570 M⁻¹ s⁻¹
[18]
  Km: 370 ± 40 µM
  kcat: 46.02 ± 0.87 s⁻¹
  kcat/Km: 125000 ± 15400 M⁻¹ s⁻¹
